Measured values published in publication PMC9482650, “Quantitative fragmentomics allow affinity mapping of interactomes” (Nature Communications, 2022).

T1: PDZD2_2, O15018
T1 sequence (O15018 329-429, limits assumed, looked up): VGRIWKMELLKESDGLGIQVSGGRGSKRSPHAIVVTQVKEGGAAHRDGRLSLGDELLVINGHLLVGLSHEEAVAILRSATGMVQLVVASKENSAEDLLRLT

T2: GRIP1_3, Q9Y3R0
T2 sequence (Q9Y3R0 247-346, limits assumed, looked up): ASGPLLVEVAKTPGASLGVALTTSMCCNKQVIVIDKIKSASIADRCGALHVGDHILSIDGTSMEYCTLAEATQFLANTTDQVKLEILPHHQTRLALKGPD

T3: GRIP1_4, Q9Y3R0
T3 sequence (Q9Y3R0 467-571, limits assumed, looked up): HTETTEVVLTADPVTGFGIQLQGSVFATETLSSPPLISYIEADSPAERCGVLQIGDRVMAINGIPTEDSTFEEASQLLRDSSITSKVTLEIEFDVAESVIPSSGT

T4: APBA2_1, Q99767
T4 sequence (Q99767 563-664, limits assumed, looked up): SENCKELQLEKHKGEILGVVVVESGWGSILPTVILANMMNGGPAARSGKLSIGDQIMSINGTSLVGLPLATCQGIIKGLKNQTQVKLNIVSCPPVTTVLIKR

T5: HTRA3, P83110
T5 sequence (P83110 354-453, limits assumed, looked up): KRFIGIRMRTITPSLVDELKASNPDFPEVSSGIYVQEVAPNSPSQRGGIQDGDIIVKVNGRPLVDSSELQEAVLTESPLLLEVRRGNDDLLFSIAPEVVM

T6: DLG3_2, Q92796
T6 sequence (Q92796 221-321, limits assumed, looked up): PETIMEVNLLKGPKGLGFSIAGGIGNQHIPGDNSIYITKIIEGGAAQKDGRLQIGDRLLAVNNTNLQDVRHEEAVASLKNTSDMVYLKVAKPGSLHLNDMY

T7: SNTB1, Q13884
T7 sequence (Q13884 107-205, limits assumed, looked up): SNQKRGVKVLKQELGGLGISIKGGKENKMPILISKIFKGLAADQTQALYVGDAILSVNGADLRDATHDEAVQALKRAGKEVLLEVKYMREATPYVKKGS

T8: PCLO, Q9Y6V0
T8 sequence (Q9Y6V0 4491-4600, limits assumed, looked up): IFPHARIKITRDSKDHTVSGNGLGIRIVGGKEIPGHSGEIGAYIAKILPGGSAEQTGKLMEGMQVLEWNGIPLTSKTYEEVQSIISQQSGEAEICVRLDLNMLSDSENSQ

T9: DFNB31_1, Q9P202
T9 sequence (Q9P202 135-233, limits assumed, looked up): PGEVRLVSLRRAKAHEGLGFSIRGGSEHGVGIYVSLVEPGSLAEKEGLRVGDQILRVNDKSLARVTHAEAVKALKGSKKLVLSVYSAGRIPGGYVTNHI

T10: MPP7, Q5T2T1
T10 sequence (Q5T2T1 134-230, limits assumed, looked up): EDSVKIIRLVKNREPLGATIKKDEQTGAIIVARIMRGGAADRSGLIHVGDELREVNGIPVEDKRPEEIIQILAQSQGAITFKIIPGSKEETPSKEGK

T11: GRIP1_7, Q9Y3R0
T11 sequence (Q9Y3R0 999-1096, limits assumed, looked up): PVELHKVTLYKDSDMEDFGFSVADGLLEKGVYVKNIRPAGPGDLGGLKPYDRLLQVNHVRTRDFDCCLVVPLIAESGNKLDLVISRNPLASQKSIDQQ

T12: LIN7B, Q9HAP6
T12 sequence (Q9HAP6 88-185, limits assumed, looked up): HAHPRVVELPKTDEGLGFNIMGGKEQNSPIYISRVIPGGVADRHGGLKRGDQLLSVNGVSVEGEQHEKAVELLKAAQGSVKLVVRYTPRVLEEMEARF


Assays:
Assay in all cases: holdup assay
Set-up in all cases: key: below the threshold = too weak to quantify, mostly under pKd 3.1 to 4
Details in all cases: plain residues with an end cap or a label only (N-terminal biotin on a linker: ttds)
PDZD2_2, O15018 = biological target: T1, PDZD2_2, O15018
AHNAK1, Q09666 = biological target: AHNAK1, Q09666
Chain of AHNAK1, Q09666 (Q09666 4-100): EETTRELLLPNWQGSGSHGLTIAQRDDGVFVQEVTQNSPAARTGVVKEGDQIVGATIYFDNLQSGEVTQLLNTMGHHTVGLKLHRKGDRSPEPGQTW

GRIP1_3, Q9Y3R0 = biological target: T2, GRIP1_3, Q9Y3R0
GRIP1_4, Q9Y3R0 = biological target: T3, GRIP1_4, Q9Y3R0
APBA2_1, Q99767 = biological target: T4, APBA2_1, Q99767
NHERF4_1, Q86UT5-2 = biological target: NHERF4_1, Q86UT5-2
Chain of NHERF4_1, Q86UT5-2 (Q86UT5 other isoform, or with tags, fused parts or gaps): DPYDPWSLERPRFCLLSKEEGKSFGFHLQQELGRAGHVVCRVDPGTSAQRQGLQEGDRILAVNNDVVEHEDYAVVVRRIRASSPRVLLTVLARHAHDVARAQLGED

DLG1_1, Q12959 = biological target: DLG1_1, Q12959
GORASP1, Q9BQQ3 = biological target: GORASP1, Q9BQQ3
Chain of GORASP1, Q9BQQ3 (Q9BQQ3 1-208): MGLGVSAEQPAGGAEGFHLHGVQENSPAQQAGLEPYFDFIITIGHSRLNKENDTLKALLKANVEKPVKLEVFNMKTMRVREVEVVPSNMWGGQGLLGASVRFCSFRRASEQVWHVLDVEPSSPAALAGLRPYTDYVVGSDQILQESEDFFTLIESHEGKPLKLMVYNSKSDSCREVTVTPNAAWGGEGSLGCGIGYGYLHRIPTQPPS

LNX1_3, Q8TBB1 = biological target: LNX1_3, Q8TBB1
Chain of LNX1_3, Q8TBB1 (Q8TBB1 500-596): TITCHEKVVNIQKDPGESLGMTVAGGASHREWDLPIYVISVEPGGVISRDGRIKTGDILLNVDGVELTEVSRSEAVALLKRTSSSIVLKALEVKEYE

PICK1, Q9NRD5 = biological target: PICK1, Q9NRD5
Chain of PICK1, Q9NRD5 (Q9NRD5 17-115): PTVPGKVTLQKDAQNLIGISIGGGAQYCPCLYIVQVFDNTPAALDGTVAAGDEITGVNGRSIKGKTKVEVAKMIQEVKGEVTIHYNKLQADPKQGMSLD

HTRA3, P83110 = biological target: T5, HTRA3, P83110
PDZRN4_1, Q6ZMN7 = biological target: PDZRN4_1, Q6ZMN7
Chain of PDZRN4_1, Q6ZMN7 (Q6ZMN7 213-318): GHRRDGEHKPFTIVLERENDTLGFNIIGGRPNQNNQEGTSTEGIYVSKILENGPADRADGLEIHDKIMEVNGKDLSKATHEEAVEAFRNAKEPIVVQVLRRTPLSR

Inadl_1, Q8NI35 = biological target: Inadl_1, Q8NI35
Chain of Inadl_1, Q8NI35 (Q8NI35 113-229): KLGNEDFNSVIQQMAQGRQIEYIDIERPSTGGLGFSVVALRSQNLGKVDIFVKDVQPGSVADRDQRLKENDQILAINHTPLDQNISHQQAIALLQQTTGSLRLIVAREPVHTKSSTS

Inadl_9, Q8NI35 = biological target: Inadl_9, Q8NI35
Chain of Inadl_9, Q8NI35 (Q8NI35 1530-1615): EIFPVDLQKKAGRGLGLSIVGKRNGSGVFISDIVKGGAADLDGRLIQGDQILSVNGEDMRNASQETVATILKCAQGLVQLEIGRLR

DLG2_3, Q15700 = biological target: DLG2_3, Q15700
DLG3_2, Q92796 = biological target: T6, DLG3_2, Q92796
Inadl_10, Q8NI35 = biological target: Inadl_10, Q8NI35
Chain of Inadl_10, Q8NI35 (Q8NI35 1673-1763): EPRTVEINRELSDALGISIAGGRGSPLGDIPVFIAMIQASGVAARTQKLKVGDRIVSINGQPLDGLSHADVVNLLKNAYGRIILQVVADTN

SNTB1, Q13884 = biological target: T7, SNTB1, Q13884
SCRIB_3, Q14160 = biological target: SCRIB_3, Q14160
Chain of SCRIB_3, Q14160 (Q14160 999-1103): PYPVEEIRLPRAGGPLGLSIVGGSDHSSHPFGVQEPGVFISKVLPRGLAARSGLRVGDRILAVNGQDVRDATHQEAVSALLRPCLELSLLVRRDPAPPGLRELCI

PCLO, Q9Y6V0 = biological target: T8, PCLO, Q9Y6V0
DFNB31_1, Q9P202 = biological target: T9, DFNB31_1, Q9P202
MPP7, Q5T2T1 = biological target: T10, MPP7, Q5T2T1
Inadl_5, Q8NI35 = biological target: Inadl_5, Q8NI35
Chain of Inadl_5, Q8NI35 (Q8NI35 673-780): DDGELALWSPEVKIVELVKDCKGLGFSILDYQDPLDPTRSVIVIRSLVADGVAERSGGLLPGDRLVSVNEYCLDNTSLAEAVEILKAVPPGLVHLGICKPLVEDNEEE

DLG1_2, Q12959 = biological target: DLG1_2, Q12959
GRIP1_7, Q9Y3R0 = biological target: T11, GRIP1_7, Q9Y3R0
LIN7B, Q9HAP6 = biological target: T12, LIN7B, Q9HAP6

pKd (AHNAK1, Q09666) | pKd (GRIP1_3, Q9Y3R0) | pKd (GRIP1_4, Q9Y3R0) | pKd (APBA2_1, Q99767) | pKd (NHERF4_1, Q86UT5-2) | pKd (DLG1_1, Q12959) | pKd (GORASP1, Q9BQQ3) | pKd (LNX1_3, Q8TBB1) | pKd (PICK1, Q9NRD5) | pKd (HTRA3, P83110) | pKd (PDZRN4_1, Q6ZMN7) | pKd (DLG2_3, Q15700) | pKd (DLG3_2, Q92796) | pKd (SNTB1, Q13884) | pKd (SCRIB_3, Q14160) | pKd (PCLO, Q9Y6V0) | pKd (DFNB31_1, Q9P202) | pKd (MPP7, Q5T2T1) | pKd (GRIP1_7, Q9Y3R0) | pKd (LIN7B, Q9HAP6) | Binder | further results
below the threshold | below the threshold | below the threshold | below the threshold | below the threshold | below the threshold | below the threshold | below the threshold | below the threshold | below the threshold | below the threshold | below the threshold | 3.73 | 3.65 | below the threshold | below the threshold | below the threshold | below the threshold | below the threshold | below the threshold | PRVKPQRSKV [PPP1R13L, Q8WUF5] | pKd (PDZD2_2, O15018): 4.01; pKd (Inadl_1, Q8NI35): 3.66; pKd (Inadl_9, Q8NI35): below the threshold; pKd (Inadl_10, Q8NI35): below the threshold; pKd (Inadl_5, Q8NI35): below the threshold; pKd (DLG1_2, Q12959): below the threshold
below the threshold | below the threshold | below the threshold | below the threshold | below the threshold | below the threshold | below the threshold | below the threshold | below the threshold | below the threshold | 3.98 | below the threshold | below the threshold | 4.26 | 5.08 | below the threshold | 4.07 | below the threshold | below the threshold | below the threshold | NDPAWDETNL [ARHGEF7, Q14155;Q14155-1] | pKd (Inadl_9, Q8NI35): below the threshold; pKd (Inadl_10, Q8NI35): below the threshold; pKd (Inadl_5, Q8NI35): below the threshold; pKd (DLG1_2, Q12959): below the threshold
below the threshold | below the threshold | below the threshold | below the threshold | below the threshold | 4.2 | 4.06 | below the threshold | below the threshold | below the threshold | 3.91 | 3.86 | 4.24 | 4.71 | 4.1 | 3.71 | 3.53 | below the threshold | below the threshold | below the threshold | EMDRRPATVV [PLCB4, Q15147] | pKd (PDZD2_2, O15018): 3.87
